Data taken from article PMC4354016, “Centromeric binding and activity of Protein Phosphatase 4” (Nature Communications, 2015).

T1: recombinant Flfl^1–168 (untagged) (Drosophila melanogaster, UniProt Q9VFS5 1-168)
T1 construct: pETDuet-1 (MCS1), TEV site between His tag and Flfl; source: E. coli Rosetta2(DE3)pLysS, purified (Ni-NTA, TEV cleavage, re-incubation with Ni-NTA); not shown: 6xHis, N-terminal, cleaved
T1 sequence (looked up): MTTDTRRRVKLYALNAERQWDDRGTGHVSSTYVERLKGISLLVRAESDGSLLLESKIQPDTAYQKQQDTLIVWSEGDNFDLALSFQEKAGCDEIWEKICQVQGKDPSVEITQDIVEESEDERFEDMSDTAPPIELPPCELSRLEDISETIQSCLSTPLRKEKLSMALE

T2: Flfl^1–122 (Drosophila melanogaster, UniProt Q9VFS5 1-122)
T2 construct: Falafel (Flfl) residues 1-122, holds the EVH1 domain; residues 4-114 are in the final model; also called Falafel (1–122); His::TEV::Flfl^1–122aa; source: E. coli BL21 (DE3) RIL, purified (HisTrap, TEV cleavage, anion exchange, SEC); not shown: 6xHis, N-terminal, cleaved
T2 sequence (looked up): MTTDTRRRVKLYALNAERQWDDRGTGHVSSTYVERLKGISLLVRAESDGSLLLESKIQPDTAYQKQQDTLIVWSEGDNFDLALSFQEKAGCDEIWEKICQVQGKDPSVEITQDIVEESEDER

B1: recombinant CENP-C^FBD (untagged) (domain or fragment, Drosophila melanogaster, UniProt Q9VHP9 1002-1093, looked up)
chain: IDQNSDDVPSRNPSPSRTLLSDDVPSTSRAALEFLQRSQNMSKSRPPDESSADVVFKKPLAPAPRAKSKKGKSEVDKLKLAKMPVEAEELNT
notes: pETDuet-1 (MCS1), TEV site between His tag and FBD; also called His::TEV::CENP-C^FBD; source: E. coli Rosetta2(DE3)pLysS, purified (Ni-NTA, TEV cleavage, re-incubation with Ni-NTA); not shown: 6xHis, N-terminal, cleaved
B2: CENP-C^FIM peptide (peptide)
peptide: PDESSADVVFKKPLAPAPR
notes: source: synthetic peptide (in solution for crystallisation; spotted onto a cellulose membrane for the substitution array)

What was measured:
Conditions in all cases: both partners purified
[1] = target: T1, recombinant Flfl^1–168 (untagged); assay: SEC; Flfl^1–168 and CENP-C^FBD mixed ~1:1 molar ratio, 16 h on ice, Superdex 200; fractions on SDS-PAGE, Coomassie
[2] = target: T1, recombinant Flfl^1–168 (untagged); assay: peptide or protein array; substitution array: every residue of the 19-mer FIM replaced by the other amino acids, on cellulose membrane; 100 nM untagged Flfl^1–168, 4 °C overnight; anti-Flfl detection
Flfl^1–122 = target: T2, Flfl^1–122; assay: crystal structure; Flfl^1–122 at 22 mg/ml incubated overnight with FIM peptide 1:1.3, sitting drop, ammonium sulfate; 1.5 Å

Binder	binding result [1]	binding result [2]	binding result (Flfl^1–122)
B1	binds		
B2		binds	binds
